In general, koff refers to a measure of how fast the partners let go of each other. What is called kon is a measure of how fast the partners come together. A high value points to faster complex formation. For orientation: Kd means the concentration at which binding is half-saturated. The low end stands for tighter binding, the high end for weaker binding.

Test [1] has as its target T1, Human CLEC12A-His (human, UniProt Q5QGZ9 65-265).
T1 sequence: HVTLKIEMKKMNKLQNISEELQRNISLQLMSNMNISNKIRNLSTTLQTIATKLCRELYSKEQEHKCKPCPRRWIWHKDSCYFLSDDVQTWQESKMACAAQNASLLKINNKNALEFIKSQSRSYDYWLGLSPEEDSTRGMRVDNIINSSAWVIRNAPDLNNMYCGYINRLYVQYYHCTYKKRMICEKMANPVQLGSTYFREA
The test can be described thus: cell-based or functional assay.

For test [2], the target named is T2, mFc-hNKG2D (human, UniProt P26718 73-216).
T2 construct: extracellular domain; Made in house (Dragonfly Tx); the order of tag and ECD follows the name mFc-hNKG2D; also called mFc-tagged human NKG2D; not shown: mouse Fc tag
T2 sequence (looked up): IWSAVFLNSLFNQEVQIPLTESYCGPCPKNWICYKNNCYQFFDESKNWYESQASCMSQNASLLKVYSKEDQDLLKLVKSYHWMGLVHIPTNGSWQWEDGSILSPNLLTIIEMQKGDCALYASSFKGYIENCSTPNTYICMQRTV
The test can be described thus: SPR Biacore 8K 37 C; mFc-hNKG2D captured on anti-mFc chip, TriNKET as analyte; 1:1 kinetic fit.

In test [3] the target is T2, mFc-hNKG2D. The test can be described thus: SPR Biacore 8K 37 C; mFc-hNKG2D captured on anti-mFc chip, TriNKET as analyte; kinetics fit; average of 4.
Procedure: Association was monitored for 60 seconds, and dissociation was monitored for 60 seconds. Surfaces were regenerated between cycles with three pulses of 10 mM glycine-HCl (pH 1.7) injected for 20 seconds at 100 μL/min.
Two different fits were utilized to obtain the equilibrium affinity data: steady state affinity fit and kinetic fit.
For test [4], the target named is T1, Human CLEC12A-His. The test can be described thus: SPR Biacore 8K 37 C; TriNKET captured on anti-hFc chip, hCLEC12A-His as analyte; 1:1 fit; after 2 wks 40 C at pH 5.0, n=2.
The target in test [5] is T2, mFc-hNKG2D. Put plainly: SPR Biacore 8K 37 C; mFc-hNKG2D captured on anti-mFc chip, TriNKET as analyte; 1:1 kinetic fit; after 2 wks 40 C at pH 5.0.
Procedure: Association was monitored for 60 seconds and dissociation was monitored for 60 seconds. Surfaces were regenerated between cycles with three pulses of 10 mM glycine-HCl, pH 1.7 injected for 20 seconds at 100 μL/min. HBS-EP+ (1×) buffer was used throughout the experiment. Data were analyzed using Biacore 8K Insight evaluation software (GE Healthcare).

Where “and” joins values, the source holds several entries; their conditions need not be identical. Equal entries are not always repeated.

B1: F3'-1602 TriNKET (bispecific antibody, human IgG1, kappa)
chain: QLQLQESGPGLVKPSETLSLTCTVSGFSLTNYGLHWIRQPPGKCLEWIGVIWSGGKTDYNPSLKSRVTISKDTSKNQFSLKLSSVQAADTAVYYCAKYDYDDSLDYWGQGTLVTVSSGGGGSGGGGSGGGGSGGGGSDIQMTQSPSSLSASVGDRVTITCHASQNINFWLSWYQQKPGKAPKLLIYEASNLHTGVPSRFSGSGSGTRFTLTISSLQPEDIATYYCQQSHSYPLTFGCGTKLEIKGSDKTHTCPPCPAPELLGGPSVFLFPPKPKDTLMISRTPEVTCVVVDVSHEDPEVKFNWYVDGVEVHNAKTKPREEQYNSTYRVVSVLTVLHQDWLNGKEYKCKVSNKALPAPIEKTISKAKGQPREPRVYTLPPCRDELTKNQVSLTCLVKGFYPSDIAVEWESNGQPENNYKTTPPVLVSDGSFTLYSKLTVDKSRWQQGNVFSCSVMHEALHNHYTQKSLSLSPG
heavy: EVQLVESGGGLVKPGGSLRLSCAASGFTFSSYSMNWVRQAPGKGLEWVSSISSSSSYIYYADSVKGRFTISRDNAKNSLYLQMNSLRAEDTAVYYCARGAPIGAAAGWFDPWGQGTLVTVSSASTKGPSVFPLAPSSKSTSGGTAALGCLVKDYFPEPVTVSWNSGALTSGVHTFPAVLQSSGLYSLSSVVTVPSSSLGTQTYICNVNHKPSNTKVDKKVEPKSCDKTHTCPPCPAPELLGGPSVFLFPPKPKDTLMISRTPEVTCVVVDVSHEDPEVKFNWYVDGVEVHNAKTKPREEQYNSTYRVVSVLTVLHQDWLNGKEYKCKVSNKALPAPIEKTISKAKGQPREPQVCTLPPSRDELTENQVSLTCLVKGFYPSDIAVEWESNGQPENNYKTTPPVLDSDGSFFLYSWLTVDKSRWQQGNVFSCSVMHEALHNHYTQKSLSLSPG
light: DIQMTQSPSSVSASVGDRVTITCRASQGISSWLAWYQQKPGKAPKLLIYAASSLQSGVPSRFSGSGSGTDFTLTISSLQPEDFATYYCQQGVSFPRTFGGGTKVEIKRTVAAPSVFIFPPSDEQLKSGTASVVCLLNNFYPREAKVQWKVDNALQSGNSQESVTEQDSKDSTYSLSSTLTLSKADYEKHKVYACEVTHQGLSSPVTKSFNRGEC
notes: Trispecific F3' format: CLEC12A scFv-Fc paired with NKG2D Fab-Fc; Stressed and control samples of the stability studies are the same molecule; also called AB0237
Regarding B1, in the test with Human CLEC12A-His [1], the “EC50 (nM), lysis of CLEC12A+ PL21 cells by KHYG-1-CD16a cells; HST formulation, 40 C, 4 wks” value is 1.21 nM. The “EC50 (nM), lysis of CLEC12A+ PL21 cells by KHYG-1-CD16a cells; control sample” value in the test with Human CLEC12A-His [1] was determined as 0.17 nM. Moreover, the koff in the test with mFc-hNKG2D [2] is 0.126 s⁻¹ and 0.13 s⁻¹ and 0.131 s⁻¹ and 0.132 s⁻¹; in the test with Human CLEC12A-His [4], 0.000871 s⁻¹; in the test with mFc-hNKG2D [5], 0.127 s⁻¹. Also, the association rate constant (kon) with mFc-hNKG2D [2] was 180000 M⁻¹ s⁻¹ and 184000 M⁻¹ s⁻¹ and 175000 M⁻¹ s⁻¹; with Human CLEC12A-His [4], 865000 M⁻¹ s⁻¹; with mFc-hNKG2D [5], 188000 M⁻¹ s⁻¹. Besides, the values for the Kd with mFc-hNKG2D [3], with Human CLEC12A-His [4] and with mFc-hNKG2D [5] were 721 nM, 1.01 nM and 675 nM, respectively.
